Reference: US20190300590A1 (PROTAGONIST THERAPEUTICS, published 2019)
Where two headings read alike, the source gives them in different places. Bridges are numbered along the chain shown (N, C = ends). [ ]: non-standard residue; d: D form. 2Nal = N[C@@H](Cc1ccc2ccccc2c1)C(=O)O; AEF = NCCOc1ccc(C[C@H](N)C(=O)O)cc1; hLeu = CC(C)CC[C@H](N)C(=O)O; αMeK = C[C@](N)(CCCCN)C(=O)O; Thp = NC1(C(=O)O)CCOCC1; Abu = CC[C@H](N)C(=O)O; Ac4c = NC1(C(=O)O)CCC1; Ac3c = NC1(C(=O)O)CC1; Aib = CC(C)(N)C(=O)O

B1: Ac-CRTWQCYWLRLGDEG-NH2 (peptide)
peptide: Ac-CRTWQCYWLRLGDEG-NH2
modifications: disulfide 1-6 (inferred)
B2: Ac-CSTWQCYWSKQSGGS-NH2 (peptide)
peptide: Ac-CSTWQCYWSKQSGGS-NH2
modifications: disulfide 1-6
SMILES: CC(=O)N[C@H]1CSSC[C@@H](C(=O)N[C@@H](Cc2ccc(O)cc2)C(=O)N[C@@H](Cc2c[nH]c3ccccc23)C(=O)N[C@@H](CO)C(=O)N[C@@H](CCCCN)C(=O)N[C@@H](CCC(N)=O)C(=O)N[C@@H](CO)C(=O)NCC(=O)NCC(=O)N[C@@H](CO)C(N)=O)NC(=O)[C@H](CCC(N)=O)NC(=O)[C@H](Cc2c[nH]c3ccccc23)NC(=O)[C@H]([C@@H](C)O)NC(=O)[C@H](CO)NC1=O
B3: [Ac-[Pen]-NTWQ-[Pen]-[Phe(4-CONH2)]-[2-Nal]-[Achc]-KNN-NH2]2DIG (peptide)
peptide: XNTWQXFXXKNN
modifications: Ac; Pen-Pen disulfide; Phe(4-CONH2); 2-Nal; Achc; NH2; DIG linker joins the two subunits
B4: Ac-Cyclo-[[Abu]-QTWQC]-[Phe[4-(2-aminoethoxy)]]-[2-Nal]-[Acbc]-ENN-NH2 (peptide)
peptide: Ac-[Abu]QTWQC[AEF][2Nal][Ac4c]ENN-NH2
modifications: thioether 1-6
B5: Ac-CQTWQCYW-[hLeu]-ENGG-NH2 (peptide)
peptide: Ac-CQTWQCYW[hLeu]ENGG-NH2
modifications: cysteine pairing not given here
B6: Ac-Cyclo-[[Abu]-QTWQC]-[Phe[4-(2-aminoethoxy)]]-[2-Nal]-[4-amino-4-carboxy-tetrahydropyran]-ENN-NH2 (peptide)
peptide: Ac-[Abu]QTWQC[AEF][2Nal][Thp]ENN-NH2
modifications: thioether 1-6
B7: Ac-Cyclo-[[Abu]-QTWQC]-[Phe[4-(2-aminoethoxy)]]-[2-Nal]-[Aib]-QNG-NH2 (peptide)
peptide: Ac-[Abu]QTWQC[AEF][2Nal][Aib]QNG-NH2
modifications: thioether 1-6
B8: Ac-Cyclo-[[Abu]-QTWQC]-[Phe[4-(2-aminoethoxy)]]-[2-Nal]-[Aib]-[Lys(Ac)]-NA-NH2 (peptide)
peptide: Ac-[Abu]QTWQC[AEF][2Nal][Aib]K(Ac)NA-NH2
modifications: thioether 1-6
B9: Ac-Cyclo-[[Abu]-QTWQC]-[Phe[4-(2-aminoethoxy)]]-[2-Nal]-]Acpc]-ENN-NH2 (peptide)
peptide: Ac-[Abu]QTWQC[AEF][2Nal][Ac3c]ENN-NH2
modifications: thioether 1-6
B10: Ac-[(D)Phe]-Cyclo-[[Abu]-QTWQC]-[Phe[4-(2-aminoethoxy)]]-[2-Nal]-[α-MeLys]-ENN-NH2 (peptide)
peptide: Ac-[dF][Abu]QTWQC[AEF][2Nal][αMeK]ENN-NH2
modifications: thioether 2-7
B11: Ac-CQTWQCYW-[Aib]-ENG-NH2 (peptide)
peptide: Ac-CQTWQCYW[Aib]ENG-NH2
modifications: disulfide 1-6 (inferred)
B12: Ac-FCQTWQCYW-[hLeu]-ENG-NH2 (peptide)
peptide: Ac-FCQTWQCYW[hLeu]ENG-NH2
modifications: cysteine pairing not given here
B13: Ac-LCQTWQCYW-[hLeu]-ENG-NH2 (peptide)
peptide: Ac-LCQTWQCYW[hLeu]ENG-NH2
modifications: cysteine pairing not given here
B14: Ac-CQTWQCYW-[3-Pal]-ENG-NH2 (peptide)
peptide: CQTWQCYWXENG
modifications: Ac; 3-Pal; NH2
B15: Ac-CQTWQCYW-[hLeu]-ENE-NH2 (peptide)
peptide: Ac-CQTWQCYW[hLeu]ENE-NH2
modifications: disulfide 1-6 (inferred)
B16: Ac-CQTWQCYW-[hLeu]-EEG-NH2 (peptide)
peptide: Ac-CQTWQCYW[hLeu]EEG-NH2
modifications: disulfide 1-6 (inferred)

Key:
Rat IL-23R_huFC [1] = target: T1, Rat IL-23R_huFC (rat, UniProt F1LX96 39-369); assay: rat IL-23R competitive binding ELISA
T1 sequence: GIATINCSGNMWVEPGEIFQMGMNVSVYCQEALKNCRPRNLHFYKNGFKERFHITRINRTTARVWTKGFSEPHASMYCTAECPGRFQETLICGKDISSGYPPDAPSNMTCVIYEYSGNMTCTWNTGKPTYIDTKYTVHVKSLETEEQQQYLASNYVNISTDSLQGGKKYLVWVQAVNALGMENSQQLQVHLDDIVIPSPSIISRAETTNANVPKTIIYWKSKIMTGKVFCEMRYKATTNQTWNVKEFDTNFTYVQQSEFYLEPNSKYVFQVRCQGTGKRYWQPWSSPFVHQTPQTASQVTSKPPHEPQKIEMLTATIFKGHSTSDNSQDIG

IL-23R on DB cells = target: T2, IL-23R on DB cells (human, UniProt Q5VWK5 24-629); assay: cell-based or functional assay
T2 sequence (looked up): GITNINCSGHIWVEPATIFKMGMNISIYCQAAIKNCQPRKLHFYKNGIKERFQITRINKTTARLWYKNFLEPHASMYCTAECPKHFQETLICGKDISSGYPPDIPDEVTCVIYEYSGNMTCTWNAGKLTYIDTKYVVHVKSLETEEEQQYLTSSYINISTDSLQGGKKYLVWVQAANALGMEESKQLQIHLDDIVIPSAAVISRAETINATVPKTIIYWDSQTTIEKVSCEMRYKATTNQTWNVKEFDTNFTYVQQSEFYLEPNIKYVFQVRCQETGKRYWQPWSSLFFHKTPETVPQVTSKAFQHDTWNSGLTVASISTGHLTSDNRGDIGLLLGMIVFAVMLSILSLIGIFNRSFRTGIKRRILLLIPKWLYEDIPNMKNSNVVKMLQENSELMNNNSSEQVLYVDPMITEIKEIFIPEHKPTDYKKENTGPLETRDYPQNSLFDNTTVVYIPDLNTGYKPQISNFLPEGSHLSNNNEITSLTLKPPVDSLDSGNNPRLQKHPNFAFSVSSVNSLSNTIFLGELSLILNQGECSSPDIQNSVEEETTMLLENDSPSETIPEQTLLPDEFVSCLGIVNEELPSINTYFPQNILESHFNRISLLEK

[2] = target: T3, IL-23R on human cells (IL-23R-expressing DB cells; human NK cells) (human, UniProt Q5VWK5 24-629); assay: cell-based or functional assay
T3 sequence (looked up): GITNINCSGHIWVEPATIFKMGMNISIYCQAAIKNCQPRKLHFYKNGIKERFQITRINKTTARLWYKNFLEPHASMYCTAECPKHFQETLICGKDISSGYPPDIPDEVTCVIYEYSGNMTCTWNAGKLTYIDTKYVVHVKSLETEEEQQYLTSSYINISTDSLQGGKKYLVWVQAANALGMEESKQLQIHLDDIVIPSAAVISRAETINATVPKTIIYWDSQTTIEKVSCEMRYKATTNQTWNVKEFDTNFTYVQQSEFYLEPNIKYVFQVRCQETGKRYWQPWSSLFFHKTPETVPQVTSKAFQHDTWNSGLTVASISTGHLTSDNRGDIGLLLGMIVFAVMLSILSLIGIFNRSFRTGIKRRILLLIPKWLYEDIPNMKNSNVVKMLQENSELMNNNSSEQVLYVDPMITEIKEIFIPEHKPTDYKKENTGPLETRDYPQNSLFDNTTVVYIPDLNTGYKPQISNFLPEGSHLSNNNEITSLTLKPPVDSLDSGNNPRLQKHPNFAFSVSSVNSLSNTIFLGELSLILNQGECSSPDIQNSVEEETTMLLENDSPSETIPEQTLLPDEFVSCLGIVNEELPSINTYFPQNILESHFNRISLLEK

[3] = target: T3, IL-23R on human cells …; assay: cell-based or functional assay; remark: listed apart in the source
Rat IL-23R_huFC [4] = target: Rat IL-23R_huFC (rat); assay: rat ELISA vs IL-23
IL23R_huFC = target: T4, IL23R_huFC (human, UniProt Q5VWK5 24-353); assay: human ELISA vs IL-23
T4 sequence (looked up): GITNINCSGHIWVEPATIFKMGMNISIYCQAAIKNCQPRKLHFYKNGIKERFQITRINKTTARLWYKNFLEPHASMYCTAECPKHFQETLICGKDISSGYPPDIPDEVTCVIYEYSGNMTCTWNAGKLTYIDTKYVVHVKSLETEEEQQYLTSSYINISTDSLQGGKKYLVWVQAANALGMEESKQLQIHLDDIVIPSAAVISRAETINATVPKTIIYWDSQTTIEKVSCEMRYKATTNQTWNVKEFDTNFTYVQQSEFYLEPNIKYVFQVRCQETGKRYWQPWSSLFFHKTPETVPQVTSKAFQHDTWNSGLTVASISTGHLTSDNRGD

Rat IL-23R_huFC [5] = target: Rat IL-23R_huFC (rat); assay: rat ELISA vs IL-23; remark: listed apart in the source

| Binder | IC50 (Rat IL-23R_huFC [1]) [nM] | NK cell assay IC50 (IFNγ) [2] [nM] | further results |
| --- | --- | --- | --- |
| B1 | 483 | – | – |
| B2 | 204 | – | – |
| B3 | – | – | pStat3 HTRF IC50 (IL-23R on DB cells): < 10 nM |
| B4 | – | < 25 | pStat3 HTRF IC50 [3]: < 10 nM |
| B5 | 140 | – | – |
| B6 | – | < 25 | IC50 (Rat IL-23R_huFC [4]): < 10 nM; pStat3 HTRF IC50 [3]: < 10 nM; IC50 (IL23R_huFC): < 10 nM |
| B7 | – | < 25 | IC50 (Rat IL-23R_huFC [5]): 10 to 25 nM; pStat3 HTRF IC50 [3]: < 10 nM; IC50 (IL23R_huFC): < 10 nM |
| B8 | – | < 25 | IC50 (Rat IL-23R_huFC [5]): 10 to 25 nM; pStat3 HTRF IC50 [3]: < 10 nM; IC50 (IL23R_huFC): < 10 nM |
| B9 | – | < 25 | – |
| B10 | – | < 25 | IC50 (Rat IL-23R_huFC [4]): < 10 nM |
| B11 | 34 | – | – |
| B12 | 25 | – | – |
| B13 | 26 | – | – |
| B14 | 20 | – | – |
| B15 | 1000 | – | – |
| B16 | 53 | – | – |
